According to patent publication EP1746106A2 (Biogen Idec MA Inc., dated 2007):

Key:
[1] = target: T1, N-terminus FLAG-tagged human full length TACI expressed on 293EBNA cells (pJST552) (human, UniProt O14836 1-293); test: flow cytometry on 293EBNA cells transfected with FLAG-tagged full length human TACI; detection with rabbit anti-mAPRIL Rb1532 and anti-rabbit IgG-PE
T1 construct: also called FLAG-tagged full length human TACI; flag-tagged full length TACI; not shown: N-terminal FLAG tag
T1 sequence: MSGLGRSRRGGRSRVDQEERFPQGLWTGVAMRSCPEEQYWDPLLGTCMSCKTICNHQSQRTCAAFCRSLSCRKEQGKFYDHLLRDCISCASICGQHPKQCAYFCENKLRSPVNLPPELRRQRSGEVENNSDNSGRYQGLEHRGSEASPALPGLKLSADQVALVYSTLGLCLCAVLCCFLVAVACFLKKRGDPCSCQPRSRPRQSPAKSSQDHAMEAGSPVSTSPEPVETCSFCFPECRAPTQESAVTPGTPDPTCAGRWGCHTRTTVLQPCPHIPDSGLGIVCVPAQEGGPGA

[2] = target: T2, FLAG-tagged soluble muBAFF (murine, UniProt Q9WU72 127-309, limits assumed); test: co-immunoprecipitation with protein A-Sepharose, anti-FLAG M2 Western blot
T2 construct: Anti-FLAG M2-purified, 500 ng used; not shown: FLAG tag
T2 sequence (Q9WU72 127-309 limits assumed): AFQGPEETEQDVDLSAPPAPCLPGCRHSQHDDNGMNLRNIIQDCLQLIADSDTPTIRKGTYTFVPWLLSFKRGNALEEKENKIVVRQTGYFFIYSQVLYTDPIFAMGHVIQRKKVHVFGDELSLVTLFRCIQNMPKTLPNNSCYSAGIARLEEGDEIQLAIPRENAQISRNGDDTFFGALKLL

B1: myc-tagged murine APRIL (ligand)
chain: EQKLISEEDLNGGGGSKELAVLTQKHKKKHSVLHLVPVNITSKDSDVTEVMWQPVLRRGRGLEAQGDIVRVWDTGIYLLYSQVLFHDVTFTMGQVVSREGQGRRETLFRCIRSMPSDPDRAYNSCYSAGVFHLHQGDIITVKIPRANAKLSLSPHGTFLGFVKL
modifications: Glycosylated (expressed in Pichia pastoris); the letters do not carry the glycans.
notes: Purified from P. pastoris supernate; also called myc-muAPRIL; Myc-Murine APRIL A88
[1]
  binding result: binds

B2: human TACI(1-160)-Ig fusion protein (Fc fusion)
chain: MSGLGRSRRGGRSRVDQEERFPQGLWTGVAMRSCPEEQYWDPLLGTCMSCKTICNHQSQRTCAAFCRSLSCRKEQGKFYDHLLRDCISCASICGQHPKQCAYFCENKLRSPVNLPPELRRQRSGEVENNSDNSGRYQGLEHRGSEASPALPGLKLSADQV
notes: Used as conditioned medium (Optimem) from transfected 293 cells; also called hTACI(1-160)-Ig; PS882 product; not shown: human IgG-Fc
[2]
  binding result: no binding (tested: 500 ng)
